B1: SEQ ID NO: 29 (peptide)
peptide: Y[Aib]QGTFTSDLSIQK([γGlu-Palmitoyl])DSRAAQEFIEWLKAGGPSSGAPPPS-NH2
modifications: N-terminus assumed
SMILES: CCCCCCCCCCCCCCCC(=O)N[C@@H](CCC(=O)NCCCC[C@H](NC(=O)[C@H](CCC(N)=O)NC(=O)[C@@H](NC(=O)[C@H](CO)NC(=O)[C@H](CC(C)C)NC(=O)[C@H](CC(=O)O)NC(=O)[C@H](CO)NC(=O)[C@@H](NC(=O)[C@H](Cc1ccccc1)NC(=O)[C@@H](NC(=O)CNC(=O)[C@H](CCC(N)=O)NC(=O)C(C)(C)NC(=O)[C@@H](N)Cc1ccc(O)cc1)[C@@H](C)O)[C@@H](C)O)[C@@H](C)CC)C(=O)N[C@@H](CC(=O)O)C(=O)N[C@@H](CO)C(=O)N[C@@H](CCCNC(=N)N)C(=O)N[C@@H](C)C(=O)N[C@@H](C)C(=O)N[C@@H](CCC(N)=O)C(=O)N[C@@H](CCC(=O)O)C(=O)N[C@@H](Cc1ccccc1)C(=O)N[C@H](C(=O)N[C@@H](CCC(=O)O)C(=O)N[C@@H](Cc1c[nH]c2ccccc12)C(=O)N[C@@H](CC(C)C)C(=O)N[C@@H](CCCCN)C(=O)N[C@@H](C)C(=O)NCC(=O)NCC(=O)N1CCC[C@H]1C(=O)N[C@@H](CO)C(=O)N[C@@H](CO)C(=O)NCC(=O)N[C@@H](C)C(=O)N1CCC[C@H]1C(=O)N1CCC[C@H]1C(=O)N1CCC[C@H]1C(=O)N[C@@H](CO)C(N)=O)[C@@H](C)CC)C(=O)O
B2: SEQ ID NO: 31 (peptide)
peptide: Y[Aib]EGTFTSDLSIQK([γGlu-Palmitoyl])DKRAAQDFIEWLKAGGPSSGAPPPS-NH2
modifications: N-terminus assumed
SMILES: CCCCCCCCCCCCCCCC(=O)N[C@@H](CCC(=O)NCCCC[C@H](NC(=O)[C@H](CCC(N)=O)NC(=O)[C@@H](NC(=O)[C@H](CO)NC(=O)[C@H](CC(C)C)NC(=O)[C@H](CC(=O)O)NC(=O)[C@H](CO)NC(=O)[C@@H](NC(=O)[C@H](Cc1ccccc1)NC(=O)[C@@H](NC(=O)CNC(=O)[C@H](CCC(=O)O)NC(=O)C(C)(C)NC(=O)[C@@H](N)Cc1ccc(O)cc1)[C@@H](C)O)[C@@H](C)O)[C@@H](C)CC)C(=O)N[C@@H](CC(=O)O)C(=O)N[C@@H](CCCCN)C(=O)N[C@@H](CCCNC(=N)N)C(=O)N[C@@H](C)C(=O)N[C@@H](C)C(=O)N[C@@H](CCC(N)=O)C(=O)N[C@@H](CC(=O)O)C(=O)N[C@@H](Cc1ccccc1)C(=O)N[C@H](C(=O)N[C@@H](CCC(=O)O)C(=O)N[C@@H](Cc1c[nH]c2ccccc12)C(=O)N[C@@H](CC(C)C)C(=O)N[C@@H](CCCCN)C(=O)N[C@@H](C)C(=O)NCC(=O)NCC(=O)N1CCC[C@H]1C(=O)N[C@@H](CO)C(=O)N[C@@H](CO)C(=O)NCC(=O)N[C@@H](C)C(=O)N1CCC[C@H]1C(=O)N1CCC[C@H]1C(=O)N1CCC[C@H]1C(=O)N[C@@H](CO)C(N)=O)[C@@H](C)CC)C(=O)O
B3: SEQ ID NO: 28 (peptide)
peptide: Y[Aib]QGTFTSDLSIQK([γGlu-Palmitoyl])DKRAAQDFIEWLKAGGPSSGAPPPS-NH2
modifications: N-terminus assumed
SMILES: CCCCCCCCCCCCCCCC(=O)N[C@@H](CCC(=O)NCCCC[C@H](NC(=O)[C@H](CCC(N)=O)NC(=O)[C@@H](NC(=O)[C@H](CO)NC(=O)[C@H](CC(C)C)NC(=O)[C@H](CC(=O)O)NC(=O)[C@H](CO)NC(=O)[C@@H](NC(=O)[C@H](Cc1ccccc1)NC(=O)[C@@H](NC(=O)CNC(=O)[C@H](CCC(N)=O)NC(=O)C(C)(C)NC(=O)[C@@H](N)Cc1ccc(O)cc1)[C@@H](C)O)[C@@H](C)O)[C@@H](C)CC)C(=O)N[C@@H](CC(=O)O)C(=O)N[C@@H](CCCCN)C(=O)N[C@@H](CCCNC(=N)N)C(=O)N[C@@H](C)C(=O)N[C@@H](C)C(=O)N[C@@H](CCC(N)=O)C(=O)N[C@@H](CC(=O)O)C(=O)N[C@@H](Cc1ccccc1)C(=O)N[C@H](C(=O)N[C@@H](CCC(=O)O)C(=O)N[C@@H](Cc1c[nH]c2ccccc12)C(=O)N[C@@H](CC(C)C)C(=O)N[C@@H](CCCCN)C(=O)N[C@@H](C)C(=O)NCC(=O)NCC(=O)N1CCC[C@H]1C(=O)N[C@@H](CO)C(=O)N[C@@H](CO)C(=O)NCC(=O)N[C@@H](C)C(=O)N1CCC[C@H]1C(=O)N1CCC[C@H]1C(=O)N1CCC[C@H]1C(=O)N[C@@H](CO)C(N)=O)[C@@H](C)CC)C(=O)O
B4: SEQ ID NO: 27 (peptide)
peptide: Y[Aib]EGTFTSDLSIQK([γGlu-Palmitoyl])EKRAA[Aib]DFIEWLKNTGPSSGAPPPS-NH2
modifications: N-terminus assumed
SMILES: CCCCCCCCCCCCCCCC(=O)N[C@@H](CCC(=O)NCCCC[C@H](NC(=O)[C@H](CCC(N)=O)NC(=O)[C@@H](NC(=O)[C@H](CO)NC(=O)[C@H](CC(C)C)NC(=O)[C@H](CC(=O)O)NC(=O)[C@H](CO)NC(=O)[C@@H](NC(=O)[C@H](Cc1ccccc1)NC(=O)[C@@H](NC(=O)CNC(=O)[C@H](CCC(=O)O)NC(=O)C(C)(C)NC(=O)[C@@H](N)Cc1ccc(O)cc1)[C@@H](C)O)[C@@H](C)O)[C@@H](C)CC)C(=O)N[C@@H](CCC(=O)O)C(=O)N[C@@H](CCCCN)C(=O)N[C@@H](CCCNC(=N)N)C(=O)N[C@@H](C)C(=O)N[C@@H](C)C(=O)NC(C)(C)C(=O)N[C@@H](CC(=O)O)C(=O)N[C@@H](Cc1ccccc1)C(=O)N[C@H](C(=O)N[C@@H](CCC(=O)O)C(=O)N[C@@H](Cc1c[nH]c2ccccc12)C(=O)N[C@@H](CC(C)C)C(=O)N[C@@H](CCCCN)C(=O)N[C@@H](CC(N)=O)C(=O)N[C@H](C(=O)NCC(=O)N1CCC[C@H]1C(=O)N[C@@H](CO)C(=O)N[C@@H](CO)C(=O)NCC(=O)N[C@@H](C)C(=O)N1CCC[C@H]1C(=O)N1CCC[C@H]1C(=O)N1CCC[C@H]1C(=O)N[C@@H](CO)C(N)=O)[C@@H](C)O)[C@@H](C)CC)C(=O)O
B5: SEQ ID NO: 30 (peptide)
peptide: Y[Aib]QGTFTSDLSIQK([γGlu-Palmitoyl])DSRAA[Aib]DFIEWLKAGGPSSGAPPPS-NH2
modifications: N-terminus assumed
SMILES: CCCCCCCCCCCCCCCC(=O)N[C@@H](CCC(=O)NCCCC[C@H](NC(=O)[C@H](CCC(N)=O)NC(=O)[C@@H](NC(=O)[C@H](CO)NC(=O)[C@H](CC(C)C)NC(=O)[C@H](CC(=O)O)NC(=O)[C@H](CO)NC(=O)[C@@H](NC(=O)[C@H](Cc1ccccc1)NC(=O)[C@@H](NC(=O)CNC(=O)[C@H](CCC(N)=O)NC(=O)C(C)(C)NC(=O)[C@@H](N)Cc1ccc(O)cc1)[C@@H](C)O)[C@@H](C)O)[C@@H](C)CC)C(=O)N[C@@H](CC(=O)O)C(=O)N[C@@H](CO)C(=O)N[C@@H](CCCNC(=N)N)C(=O)N[C@@H](C)C(=O)N[C@@H](C)C(=O)NC(C)(C)C(=O)N[C@@H](CC(=O)O)C(=O)N[C@@H](Cc1ccccc1)C(=O)N[C@H](C(=O)N[C@@H](CCC(=O)O)C(=O)N[C@@H](Cc1c[nH]c2ccccc12)C(=O)N[C@@H](CC(C)C)C(=O)N[C@@H](CCCCN)C(=O)N[C@@H](C)C(=O)NCC(=O)NCC(=O)N1CCC[C@H]1C(=O)N[C@@H](CO)C(=O)N[C@@H](CO)C(=O)NCC(=O)N[C@@H](C)C(=O)N1CCC[C@H]1C(=O)N1CCC[C@H]1C(=O)N1CCC[C@H]1C(=O)N[C@@H](CO)C(N)=O)[C@@H](C)CC)C(=O)O
B6: SEQ ID NO: 33 (peptide)
peptide: Y[Aib]EGTFTSDLSIQK([γGlu-Palmitoyl])EKRAAQDFIEWLKAGGPSSGAPPPS-NH2
modifications: N-terminus assumed
SMILES: CCCCCCCCCCCCCCCC(=O)N[C@@H](CCC(=O)NCCCC[C@H](NC(=O)[C@H](CCC(N)=O)NC(=O)[C@@H](NC(=O)[C@H](CO)NC(=O)[C@H](CC(C)C)NC(=O)[C@H](CC(=O)O)NC(=O)[C@H](CO)NC(=O)[C@@H](NC(=O)[C@H](Cc1ccccc1)NC(=O)[C@@H](NC(=O)CNC(=O)[C@H](CCC(=O)O)NC(=O)C(C)(C)NC(=O)[C@@H](N)Cc1ccc(O)cc1)[C@@H](C)O)[C@@H](C)O)[C@@H](C)CC)C(=O)N[C@@H](CCC(=O)O)C(=O)N[C@@H](CCCCN)C(=O)N[C@@H](CCCNC(=N)N)C(=O)N[C@@H](C)C(=O)N[C@@H](C)C(=O)N[C@@H](CCC(N)=O)C(=O)N[C@@H](CC(=O)O)C(=O)N[C@@H](Cc1ccccc1)C(=O)N[C@H](C(=O)N[C@@H](CCC(=O)O)C(=O)N[C@@H](Cc1c[nH]c2ccccc12)C(=O)N[C@@H](CC(C)C)C(=O)N[C@@H](CCCCN)C(=O)N[C@@H](C)C(=O)NCC(=O)NCC(=O)N1CCC[C@H]1C(=O)N[C@@H](CO)C(=O)N[C@@H](CO)C(=O)NCC(=O)N[C@@H](C)C(=O)N1CCC[C@H]1C(=O)N1CCC[C@H]1C(=O)N1CCC[C@H]1C(=O)N[C@@H](CO)C(N)=O)[C@@H](C)CC)C(=O)O

*1 amine or outer side, *2 acyl side, *3 side chain or, on linkers, in order; H or OH if unused. Where no end group is shown, it is not given here. Side-chain parts run from the residue outwards. [ ]: non-standard residue; d: D form. The star is where a group is joined. γGlu = O=C(O)[C@H](CCC(=O)[*:2])N[*:1]; Palmitoyl = CCCCCCCCCCCCCCCC(=O)*; Aib = CC(C)(N)C(=O)O

Chain of human glucagon receptor (P47871 26-477): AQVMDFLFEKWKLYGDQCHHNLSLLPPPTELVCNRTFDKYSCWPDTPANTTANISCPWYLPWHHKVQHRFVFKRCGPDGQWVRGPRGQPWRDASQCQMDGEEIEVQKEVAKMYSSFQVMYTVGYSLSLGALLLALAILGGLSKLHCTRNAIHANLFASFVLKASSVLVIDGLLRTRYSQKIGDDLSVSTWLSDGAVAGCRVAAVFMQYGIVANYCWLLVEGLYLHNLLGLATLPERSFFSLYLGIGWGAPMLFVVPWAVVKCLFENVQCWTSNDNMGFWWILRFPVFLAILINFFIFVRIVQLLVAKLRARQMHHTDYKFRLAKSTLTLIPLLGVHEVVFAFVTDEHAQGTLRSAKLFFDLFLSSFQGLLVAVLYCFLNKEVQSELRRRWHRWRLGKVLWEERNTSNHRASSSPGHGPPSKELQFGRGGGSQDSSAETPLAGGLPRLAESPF

The first test has as its target human GLP-1 receptor (human, UniProt P43220 24-463). Briefly: cell-based or functional assay.
Take B1: the “EC50 hGLP-1 R [pM]” value turned out to be 7 pM.
The same measure, in the same setting: then B2, with 6 pM; and B3, with 3.2 pM.
On to B4, for which the “EC50 hGLP-1 R [pM]” value was determined as 4 pM.
Same read-out and setting: then B5, with 12 pM.
For B6, the “EC50 hGLP-1 R [pM]” value worked out at 6.4 pM.

A further test deals with T1, human GIP receptor (human, UniProt P48546 22-466).
T1 sequence (looked up): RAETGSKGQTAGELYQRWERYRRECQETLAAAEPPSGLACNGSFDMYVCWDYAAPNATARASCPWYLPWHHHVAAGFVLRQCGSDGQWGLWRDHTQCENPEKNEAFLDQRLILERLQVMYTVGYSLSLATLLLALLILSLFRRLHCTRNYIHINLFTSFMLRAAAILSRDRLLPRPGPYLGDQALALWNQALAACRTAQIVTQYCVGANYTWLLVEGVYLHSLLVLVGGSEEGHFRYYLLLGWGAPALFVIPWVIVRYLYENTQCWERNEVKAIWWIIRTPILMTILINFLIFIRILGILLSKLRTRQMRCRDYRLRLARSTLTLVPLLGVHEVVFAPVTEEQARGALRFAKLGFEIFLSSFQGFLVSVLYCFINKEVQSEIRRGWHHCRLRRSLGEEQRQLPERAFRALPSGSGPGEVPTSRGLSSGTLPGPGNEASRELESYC
Briefly: cell-based or functional assay.
Turning to B1, the “EC50 hGIP R [pM]” value came to 127 pM.
For B2, the “EC50 hGIP R [pM]” value turned out to be 6.5 pM.
Same read-out and setting: then B3, with 10.9 pM; and B4, with 6.7 pM; and B5, with 22.1 pM.
Still for that read-out and setting: next, B6: 9.1 pM.

Another test addresses human glucagon receptor (human, UniProt P47871 26-477). Briefly: cell-based or functional assay.
For the molecule B1, the “EC50 hGLUC R [pM]” value came out at 46.8 pM.
Same read-out and setting: next, B2: 3080 pM.
In the case of B3, the “EC50 hGLUC R [pM]” value was 9.9 pM.
The same measure, in the same setting: next, B4: 6390 pM; B5: 226 pM.
On the same count and under the same terms, next, B6: 12900 pM.
